This assay concerns the target T1, VZV gH (VZV (strain ), UniProt Q775J3 18-841).
T1 sequence: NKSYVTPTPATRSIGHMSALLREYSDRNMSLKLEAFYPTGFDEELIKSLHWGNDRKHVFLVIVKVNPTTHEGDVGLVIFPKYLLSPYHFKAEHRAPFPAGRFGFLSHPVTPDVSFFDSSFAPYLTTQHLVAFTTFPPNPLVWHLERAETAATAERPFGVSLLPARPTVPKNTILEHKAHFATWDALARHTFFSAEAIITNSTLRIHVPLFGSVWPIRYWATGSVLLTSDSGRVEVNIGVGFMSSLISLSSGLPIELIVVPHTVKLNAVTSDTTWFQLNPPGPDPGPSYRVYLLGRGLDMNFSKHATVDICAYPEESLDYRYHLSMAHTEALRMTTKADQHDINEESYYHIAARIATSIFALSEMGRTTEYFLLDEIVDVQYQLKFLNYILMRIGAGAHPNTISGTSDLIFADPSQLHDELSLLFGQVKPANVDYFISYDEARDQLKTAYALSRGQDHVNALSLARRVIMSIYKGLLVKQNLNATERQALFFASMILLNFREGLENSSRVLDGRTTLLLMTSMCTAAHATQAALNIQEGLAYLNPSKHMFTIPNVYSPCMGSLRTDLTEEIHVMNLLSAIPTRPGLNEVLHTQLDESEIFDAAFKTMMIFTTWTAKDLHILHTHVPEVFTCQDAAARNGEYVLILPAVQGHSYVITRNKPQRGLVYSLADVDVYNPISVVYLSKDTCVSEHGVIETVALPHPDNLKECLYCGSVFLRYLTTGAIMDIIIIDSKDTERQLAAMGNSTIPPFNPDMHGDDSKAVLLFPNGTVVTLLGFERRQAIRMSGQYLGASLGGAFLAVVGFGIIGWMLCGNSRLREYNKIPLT
Kind of assay: immunofluorescence with antibody SG3 on transfected BHK-V cells.

These results are taken from patent US20190144507A1 (GlaxoSmithKline, published 2019).

B1: VZV gL (other)
chain: LHLQDDTPLFFGAKPLSDVSLIITEPCVSSVYEAWDYAAPPVSNLSEALSGIVVKTKCPVPEVILWFKDKQMAYWTNPYVTLKGLTQSVGEEHKSGDIRDALLDALSGVWVDSTPSSTNIPENGCVWGADRLFQRVCQ
For the molecule B1, the binding result is “binds”.
